In US9764004B2 (Eli Lilly and Company, priority 2015, dated 2017):
Each block holds one molecule with its values, some of them ahead of it.

Key:
[1] = molecular target: human Glucagon-Like Peptide-1 receptor (hGLP-1R) (Homo sapiens, UniProt P43220); test: hGLP-1-R functional cAMP assay
[2] = molecular target: T1, human glucagon receptor (hGcg-R) (Homo sapiens, UniProt P47871); test: hGcg-R functional cAMP assay; type: cell-based; conditions: geometric mean ± SEM
T1 construct: expressed in transfected cells; host or cells: 293HEK, plasmid phD, hygromycin selection

[3] = Stability in Co-Formulation with GLP-1R Agonist (dulaglutide); type: physicochemical; conditions: four weeks, dulaglutide 3 mg/mL
Experimental: Examples 1 and 3 are prepared and dialyzed against C6.5 (10 mM Citrate pH 6.5) using the same method as described above for preparation into T7 buffer. Compounds are formulated separately at 1 mg/mL peptide in buffer C6.5, C6.5M (10 mM Citrate, 46.4 mg/mL D-mannitol, pH 6.5), C6.5T (10 mM Citrate, 0.02% polysorbate-80, pH 6.5), and C6.5MT (10 mM Citrate, 46.4 mg/mL D-mannitol, 0.02% polysorbate-80, pH 6.5). A stock concentration of 46.5 mg/mL of dulaglutide in C6.5 is used to formulate dulaglutide at 3 mg/mL in C6.5 and C6.5MT. Co-formulations in C6.5MT are prepared having 3 mg/mL dulaglutide and 1 mg/mL Example 1, or 3 mg/mL dulaglutide and 1 mg/mL Example 3. Each formulated sample is transferred to three vials and maintained at 4° C., 25° C. and 40° C. Samples are assessed every two weeks for a total of four weeks. Samples are visually assessed for turbidity and phase separation. Stability is assessed by RP-HPLC and SEC-HPLC as described above. Both described HPLC methods give good separation of Example compounds and dulaglutide main peaks as well as all degradation peaks produced by stressing the sample at pH 9 and 40° C. for 3 days.

Molecule: dulaglutide
GLP-1-Fc Δ % Main Peak ([3]; RP-HPLC, C6.5, 25° C.): >−10% | GLP-1-Fc Δ % Main Peak ([3]; RP-HPLC, C6.5MT, 4° C.): −0.46% | GLP-1-Fc Δ % Main Peak ([3]; RP-HPLC, C6.5MT, 25° C.): −0.8% | GLP-1-Fc Δ % Main Peak ([3]; SEC-HPLC, C6.5, 4° C.): 0.19% | GLP-1-Fc Δ % Main Peak ([3]; SEC-HPLC, C6.5, 25° C.): −0.54% | GLP-1-Fc Δ % Main Peak ([3]; SEC-HPLC, C6.5, 40° C.): >−10% | GLP-1-Fc Δ % Main Peak ([3]; SEC-HPLC, C6.5MT, 4° C.): 0.29% | GLP-1-Fc Δ % Main Peak ([3]; SEC-HPLC, C6.5MT, 25° C.): −0.87% | GLP-1-Fc Δ % Main Peak ([3]; SEC-HPLC, C6.5MT, 40° C.): −0.83%
